The values below come from patent publication US20160200813A1.

Positions count from the first letter of the chain named.

Assay [1] addresses Mouse LRP-8 expressed on HEK293 cells (mouse) (UniProt Q924X6). Put plainly: cell-based binding on MOUSE LRP8-HEK293, supernatant 1:5.
Assay [2] shares this target. In words: cell-based binding on MOUSE LRP8-HEK293, supernatant 1:25.
Assay [3] has the same target. Put plainly: cell-based binding on MOUSE LRP8-HEK293, supernatant 1:125.
Assay [4] has the same target. Put plainly: cell-based ECL-MSD, 10 ug/ml Ab, mouse-LRP-8-HEK293.
Assay [5] has the same target. Put plainly: cell-based binding assay, mLRP8.
Assay [6] shares this target. In words: FACS, mouse LRP8 cells. On the technique in general: In flow cytometry, cells or beads pass a laser one at a time.
The target is the same in assay [7]. In words: mLRP8 cell binding.
The target is the same in assay [8]. Put plainly: cell-based MSD binding assay on 293H-mLRP8 cells; curve label LRP8-11H1.
For assay [9] the target is unchanged. In words: cell-based MSD binding assay on 293H-mLRP8 cells; curve label 11H1-16, no plateau up to about 600 nM.
Assay [10] has the same target. In words: cell-based MSD binding assay on 293H-mLRP8 cells; curve label 11H1-17.
Assay [11] has the same target. Put plainly: fit of the FACS titration of FIG. 12A on mLRP8-transfected HEK293 cells; the column head prints EC50 only, nM is from legend paragraph 78 and the axis of FIG. 12A.
Assay [12] has the same target. In words: cell-based MSD binding assay on 293H-mLRP8 cells; curve label 11H1-15.
For assay [13] the target is unchanged. In words: cell-based MSD binding assay on 293H-mLRP8 cells; curve label 11H1-18.

B1: anti-LRP-8 BGK.2C8.E6.D3 [r/m IgG2a/K] (antibody, V domains shown)
VH: QVTLKESGPGILQPSQTLSLTCTFSGFSLNTYGMGVGWVRQPSGKGLEWLANIWWDDDKFYNPSLKNRLTVSKDTSNNQAFLRITNGDTADTATYFCARILGEDIGGALDAWGQGTSVTVSS
VL: DTVLTQSPALAVSPGERVSISCRASEGVNSYMHWYQQNPGQQSKLLIYRTSNLASGVPARFGGSGSGTDFTLTIDPVEADDTATYFCQQSWNDPPTFGGGTKLELK
As to B1, the figures for the fold over isotype control in assay [1], in assay [2] and in assay [3] were 0.19 fold, 0.45 fold and 0.43 fold, respectively.

B2: anti-LRP-8 antibody ab58216 (mFc) (antibody, V domains shown)
VH: EVHLQQSGPEVVKPGASVKISCKASGYIISGYFLNWVKQSHGKSLEWVGRINPYSGDTFFNQKFKGKATLTVDKSSNTAHMELRSLTSEDSAVFYCAREDIGRFAYWGQGTLVTVSA
VL: DVLMTQTPLSLPVSLGDQASISCRSSQTIVHSNGNTYLEWYLQKPGQSPKLLIYKVSNRFSGVPDRFSGSGSGTDFTLKISRVEAEDLGVYYCFQGSHAPPTFGGGTKLEIK
B2 yielded a fold over mIgG control in assay [4] of 19.2 fold.

B3: anti-LRP-8 ML201-2B4.2B1.2H10 murine antibody (muFc) (antibody, V domains shown)
VH: DVKLVASGGGLVKPGGSLKLSCAASGFTLSRYAMSWVRQTPEKRLEWVAYIRNGGDYIYYADTVKGRFTISRDNARNTLYLQMSSLKSEDTAMYYCTREGSYYNFDYWGQGTTLTVSS
VL: B2 VL with T28S, K50N, Y54F, S68I, A99V, P101W
In assay [4], B3 displayed a fold over mIgG control of 1.2 fold.

B4: anti-LRP-8 BGK-7F7 chimeric antibody (CL-105960) (antibody, V domains shown)
VH: QVTLKESGPGILQPSQTLSLTCTFSGFSLSTYGLGVGWIRQPSGKGLEWLANIWWDDAKYYNPSLKNRLTISKDTSNNQAFLKIPNVDTADTARYYCARTTKPYYFDYWGQGVMVTVSS
VL: HFVLAQPNSVSTNLGSTVKLSCKRSTANIGSNYVNWYQQHEGRSPTTLIYRDDRRPDGVPDRFSGSIDRSSNSALLTINNVQTEDEADYFCQSYSSGINIFGGGTKLTVL
Turning to B4, the EC50 in assay [5] came to 3.92 nM.

B5: anti-LRP-8 BGK-7A11 chimeric antibody (CL-105959) (antibody, V domains shown)
VH: B4 VH with L34M, S43A, K45T, A58D, A80V, P85T, R94T
VL: B4 VL with A27G, I29S, H40Y, L48M, R54K
B5 had an EC50 in assay [5] of 27.6 nM.

B6: anti-LRP-8 BGK-6B5-2 chimeric antibody (CL-105969) (antibody, V domains shown)
VH: B4 VH with T3S, K5Q, Y32F, L34M, A58D, P85T, R94T, T101A, Q111H
VL: B4 VL with S16N, A27G, R54K, I67F, S95N, I100F
Regarding B6, the EC50 in assay [5] came out at 41.8 nM.

B7: anti-LRP-8 BGK-9D10-2 antibody (CL-105967) (antibody, V domains shown)
VH: EVQLVESGGGLVQSGRSLKLSCAASGFTFSNYYMAWVRQAPKKGLEWVATITTSGSRSFYPDSVKGRFTISRDNAKSSLYLQINSLKSEDTATYYCARRGPLGYFDHWGRGVMVTVSS
VL: DIQMTQSPPSLPASLGDKVTITCQASQNINKYIAWYQQKPGKAPRLLIRFTSTLESDTPSRFSGSGSGRDYSFSISNVESEDFASYYCLHYDNLPPWTFGGGTKLELK
In turn, B7 displayed an EC50 in [5] of 0.43 nM.

B8: anti-LRP-8 antibody CL-135325 (antibody, V domains shown)
VH: EVQLVQSGGGLVQPGGSLRLSCAASGFTFSIYAMSWVRQAPGKGLEWVSVISCSAGSTYYADSVKGRFTISRDNSKNTLYLQMNSLRAEDTAVYYCARHSVHEEFPFDVWGQGTLVTVSS
VL: DIQMTQSPSSLSASVGDRVTITCRASQSIGSYLNWYQQKPGKAPKLLIYAASSLQSGVPSRFSGSGSGTDFTLTISSLQPEDFATYYCQQSYIPPLTFGGGTKVEIK
With B8, the FACS (ratio +/-) in assay [6] was found to be 21.2.

B9: anti-LRP-8 antibody CL-135359 (antibody, V domains shown)
VH: EVQLVQSGGGLVQPGGSLRLSCAASGFTFSSYAMSWVRQAPGKGLEWVSVISCSGGTTYYADSVKGRFTISRDNSKNTLYLQMNSLRAEDTAVYYCARNGGQFDLWGQGTLVTVSS
VL: B8 VL with S28G, G30C, S31T, I93N
As to B9, the FACS (ratio +/-) in [6] was found to be 7.3.

B10: humanized ML199-11H1.5B2VH.1/VL.1a (antibody, V domains shown)
VH: EVQLVESGGGLVKPGGSLRLSCAASRFTFSNYGMSWVRQAPGKGLEWVSTISSGGRYTYYPDSVKGRFTISRDNAKNSLYLQMNSLRAEDTAVYYCARDYLYAMDYWGQGTTVTVSS
VL: DVVMTQSPLSLPVTPGEPASISCRSSQSLVYSNGNTYLHWYLQKPGQSPQVLMYKVSNRFSGVPDRFSGSGSGTDFTLKISRVEAEDVGVYFCSQSTHVPLTFGQGTKLEIK
As for B10, the EC50 in assay [7] worked out at 13.4 nM; in [8], 0.3 nM.

B11: LRP8-ML199.11H1.5B2 VH1/VL1A.16 (antibody, V domains shown)
VH: B10 VH with S63H
VL: B10 VL with N33T
For the molecule B11, the EC50 in [9] came out at 625 nM.

B12: humanized ML199-11H1.5B2VH.1a/VL.1 (antibody, V domains shown)
VH: B10 VH with S49A
VL: B10 VL with V2I, V51L, M53I, F92Y
In assay [7], B12 displayed an EC50 of 6.83 nM.

B13: anti-LRP-8 ML201-8F3.3D7 murine antibody (muFc) (antibody, V domains shown)
VH: EVQLVESGGDLVKPGGSLKLSCAASRFTFSNFGMSWVRQTPDKRLEWVATISSGGRYTYYPDSVKGRFTISRDNAKNTLYLQMSSLRSEDTAMYYCARDYLYAMDYWGQGTSVTVSS
VL: B10 VL with S7T, T14S, P15L, E17D, P18Q, Q50K, P64S, V88L, Q105A, I111L
In turn, B13 came in with a fold over mIgG control in [4] of 21.1 fold.

B14: humanized ML199-11H1.5B2VH.1a/VL.1b (antibody, V domains shown)
VH: B10 VH with S49A
VL: B10 VL with M53I, F92Y
Molecule B14 gave an EC50 in [7] of 19.6 nM.

B15: humanized ML199-11H1.5B2VH.1/VL.1 (antibody, V domains shown)
VH: B10 VH
VL: B10 VL with V2I, V51L, M53I, F92Y
B15 displayed an EC50 in assay [7] of 22.4 nM.

B16: LRP8-ML199.11H1.5B2 VH1/VL1A.17 (antibody, V domains shown)
VH: B10 VH with S63H
VL: B10 VL with G34L
In the case of B16, the EC50 in [10] was 0.7 nM.

B17: anti-LRP-8 ML199-11H1.5B2 murine antibody (muFc) (antibody, V domains shown)
VH: B13 VH with F32Y
VL: B10 VL with S7T, T14S, P15L, E17D, P18Q, Q50K, P64S, V88L, Q105A, I111L
Take B17: in assay [4], the fold over mIgG control came to 23.1 fold. Besides, in [11], the EC50 is 8.36 nM.

B18: LRP8-ML199.11H1.5B2 VH1/VL1A.15 (antibody, V domains shown)
VH: B10 VH with S63H
VL: B10 VL with G34E
With B18, the EC50 in assay [12] came out at 3.2 nM.

B19: humanized ML199-11H1.5B2VH.1/VL.1b (antibody, V domains shown)
VH: B10 VH
VL: B10 VL with M53I, F92Y
On to B19, for which, in assay [7], the EC50 worked out at 7.92 nM.

B20: humanized ML199-11H1.5B2VH.1a/VL.1a (antibody, V domains shown)
VH: B10 VH with S49A
VL: B10 VL
In [7], B20 came in with an EC50 of 41.8 nM.

B21: LRP8-ML199.11H1.5B2 VH1/VL1A.18 (antibody, V domains shown)
VH: B10 VH with S63H
VL: B10 VL with G34K
For the molecule B21, in assay [13], the half-maximal effective concentration (EC50) is 0.8 nM.

B22: anti-LRP-8 BGK.5D10.E4 [r/m IgG2a/K] (antibody, V domains shown)
VH: QVQLRETGPDLVQPTQTLSLTCTVSGFSLTNYPVQWVRQPPGSGLEWLGIMWPSGAADFNPALKSRLSISRDTSKSQFFLRMDNLQTDDTAIYFCARGRGYSSPYAMDAWGQGTSVTVSS
VL: DIQMTQSPASLSASLGETVSIECLASEDIYNNLAWYQQKPGKSPHLLIHFTSNLQDGVPSRFSGSGSGTQYSLKINSLESEDGATYFCLQDSEYPLTFGSGTKLEIK
Turning to B22, the fold over isotype control came to 0.04 fold in [1], 0.16 fold in assay [2] and 0.16 fold in assay [3].

B23: anti-LRP-8 BGK.6E3.F4 [r/m IgG2a/K] (antibody, V domains shown)
VH: EVQLVESGGGLVQPGKSLKLSCAASGFTFSDYNMAWVRQAPKKGLEWVATIMYDGSRTFYRDSVKGRYTFSRDNAKSTLYLQMDSLRSEDTATYYCATGRNWFAYWGQGTLVTVSS
VL: DIIMTQSPSSLAVSAGETVTINCKSSQSLLSSGKQKNYLAWYQQKPGQSPKLLIYLASTRESGVPDRFIGSGSGTDFTLTISSMQAEDLAIYYCQQHYDTPLTFGSGTKLEIK
B23: the fold over isotype control in assay [1] worked out at 0.72 fold; in [2], 0.44 fold; in [3] it was 0.21 fold.

For orientation: EC50 means the midpoint of the concentration-response curve. Lower therefore signals a more potent agent.
